Source: patent publication US20250135039A1, “INHIBITOR-RESISTANT MGMT MODIFICATIONS AND MODIFICATION OF MGMT-ENCODING NUCLEIC ACIDS” (Ensoma, Inc., priority 2022, published 2025)

Test system: U251 human glioblastoma cell line
Test: in vitro FM-HCR assay of MGMT activity (mPlum O^6MeG reporter plasmid)
Format: cell-based
Conditions: for Reporter expression (%) mean, O^6BG: 100 μM O^6BG; for Reporter expression (%) mean, O^6BG / Reporter expression (%) mean, DMSO: U251 cells, flow cytometry 24 h after transfection, damaged/undamaged reporter, inversely related to MGMT activity; for Reporter expression (%) mean, DMSO: 0.1% DMSO; for MGMT activity (a.u.) DMSO / MGMT activity (% of WT) DMSO: DMSO condition; for MGMT activity (a.u.) DMSO / MGMT activity (a.u.) O^6BG: determined from percent reporter expression; for MGMT activity (% of WT) DMSO / MGMT activity (% of WT) O^6BG: relative to wild-type MGMT in same condition; for Relative MGMT activity (%): MGMT activity (a.u.) in O^6BG divided by DMSO x 100, higher values indicate resistance; for MGMT activity (a.u.) O^6BG / MGMT activity (% of WT) O^6BG: O^6BG condition; for Ratio percent reporter expression (O^6BG/DMSO): lower values indicate resistance to O^6BG; for O^6BG resistance relative to WT (%): percentage difference in relative MGMT activity between variant and wild-type MGMT
Procedure, shortened: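 U251 cells transfected with MGMT variant plasmid, mPlum O^6MeG reporter (or undamaged mPlum plasmid) and BFP control, in 100 μM O^6BG or 0.1% DMSO; flow cytometry at 24 h. mPlum count×intensity normalized to BFP; percent reporter expression = damaged/undamaged ×100, inversely related to MGMT activity.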

Molecule | Reporter expression (%) mean, O^6BG | Reporter expression (%) mean, DMSO | MGMT activity (a.u.) DMSO | MGMT activity (% of WT) DMSO | Relative MGMT activity (%) | MGMT activity (a.u.) O^6BG | MGMT activity (% of WT) O^6BG | Ratio percent reporter expression (O^6BG/DMSO) | O^6BG resistance relative to WT (%)
P140I: MGMT polypeptide with mutation P140I (protein) MDKDCEMKRTTLDSPLGKLELSGCEQGLHEIKLLGKGTSAADAVEVPAPAAVLGGPEPLMQCTAWLNAYFHQPEAIEEFPVPALHHPVFQQESFTRQVLWKLLKVVKFGEVISYQQLAALAGNPKAARAVGGAMRGNPVIILIPCHRVVCSSGAVGNYSGGLAVKEWLLAHEGHRLGKPGLGGSSGLAGAWLKGAGATSGSPPAGRN | 31.0% | 14.7% | 6.82 a.u. | 126.1 % of WT | 47.3% | 3.23 a.u. | 225.8 % of WT | 2.11 | 79.0%
G156V: MGMT polypeptide with mutation G156V (protein) MDKDCEMKRTTLDSPLGKLELSGCEQGLHEIKLLGKGTSAADAVEVPAPAAVLGGPEPLMQCTAWLNAYFHQPEAIEEFPVPALHHPVFQQESFTRQVLWKLLKVVKFGEVISYQQLAALAGNPKAARAVGGAMRGNPVPILIPCHRVVCSSGAVVNYSGGLAVKEWLLAHEGHRLGKPGLGGSSGLAGAWLKGAGATSGSPPAGRN | 55.0% | 36.8% | 2.72 a.u. | 50.3 % of WT | 66.8% | 1.82 a.u. | 127.3 % of WT | 1.50 | 152.8%
P140R: MGMT polypeptide with mutation P140R (protein) MDKDCEMKRTTLDSPLGKLELSGCEQGLHEIKLLGKGTSAADAVEVPAPAAVLGGPEPLMQCTAWLNAYFHQPEAIEEFPVPALHHPVFQQESFTRQVLWKLLKVVKFGEVISYQQLAALAGNPKAARAVGGAMRGNPVRILIPCHRVVCSSGAVGNYSGGLAVKEWLLAHEGHRLGKPGLGGSSGLAGAWLKGAGATSGSPPAGRN | 38.3% | 25.3% | 3.95 a.u. | 73.0 % of WT | 66.1% | 2.61 a.u. | 182.6 % of WT | 1.51 | 150.1%
G156A: MGMT polypeptide with mutation G156A (protein) MDKDCEMKRTTLDSPLGKLELSGCEQGLHEIKLLGKGTSAADAVEVPAPAAVLGGPEPLMQCTAWLNAYFHQPEAIEEFPVPALHHPVFQQESFTRQVLWKLLKVVKFGEVISYQQLAALAGNPKAARAVGGAMRGNPVPILIPCHRVVCSSGAVANYSGGLAVKEWLLAHEGHRLGKPGLGGSSGLAGAWLKGAGATSGSPPAGRN | 79.0% | 32.3% | 3.10 a.u. | 57.4 % of WT | 40.8% | 1.27 a.u. | 88.6 % of WT | 2.45 | 54.5%
G156I: MGMT polypeptide with mutation G156I (protein) MDKDCEMKRTTLDSPLGKLELSGCEQGLHEIKLLGKGTSAADAVEVPAPAAVLGGPEPLMQCTAWLNAYFHQPEAIEEFPVPALHHPVFQQESFTRQVLWKLLKVVKFGEVISYQQLAALAGNPKAARAVGGAMRGNPVPILIPCHRVVCSSGAVINYSGGLAVKEWLLAHEGHRLGKPGLGGSSGLAGAWLKGAGATSGSPPAGRN | 54.0% | 42.0% | 2.38 a.u. | 44.0 % of WT | 77.8% | 1.85 a.u. | 129.6 % of WT | 1.29 | 194.3%
G156P: MGMT polypeptide with mutation G156P (protein) MDKDCEMKRTTLDSPLGKLELSGCEQGLHEIKLLGKGTSAADAVEVPAPAAVLGGPEPLMQCTAWLNAYFHQPEAIEEFPVPALHHPVFQQESFTRQVLWKLLKVVKFGEVISYQQLAALAGNPKAARAVGGAMRGNPVPILIPCHRVVCSSGAVPNYSGGLAVKEWLLAHEGHRLGKPGLGGSSGLAGAWLKGAGATSGSPPAGRN | 47.3% | 41.0% | 2.44 a.u. | 45.1 % of WT | 86.6% | 2.11 a.u. | 147.9 % of WT | 1.15 | 227.8%
P140Q: MGMT polypeptide with mutation P140Q (protein) MDKDCEMKRTTLDSPLGKLELSGCEQGLHEIKLLGKGTSAADAVEVPAPAAVLGGPEPLMQCTAWLNAYFHQPEAIEEFPVPALHHPVFQQESFTRQVLWKLLKVVKFGEVISYQQLAALAGNPKAARAVGGAMRGNPVQILIPCHRVVCSSGAVGNYSGGLAVKEWLLAHEGHRLGKPGLGGSSGLAGAWLKGAGATSGSPPAGRN | 49.0% | 15.3% | 6.52 a.u. | 120.7 % of WT | 31.3% | 2.04 a.u. | 142.9 % of WT | 3.20 | 18.4%
